Laboratory results taken from patent US20250059285A1 (ARGENX, published 2025).

T1: human Gal10-His (human, UniProt Q05315 2-142, limits assumed)
T1 construct: also called hGal10-His; human Gal10-His tagged; not shown: His tag
T1 sequence: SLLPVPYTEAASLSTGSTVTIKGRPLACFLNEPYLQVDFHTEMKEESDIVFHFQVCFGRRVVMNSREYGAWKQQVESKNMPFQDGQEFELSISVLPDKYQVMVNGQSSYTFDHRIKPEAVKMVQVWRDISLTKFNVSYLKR


Experiments:
human Gal10-His [1] = target: T1, human Gal10-His; experiment: SPR Biacore 3000, Fab periplasmic extract on Gal10-His-coated CM5
Description: The binding properties of the Fabs (periplasmic extract) to human Gal10-His were analyzed by SPR with a Biacore 3000 instrument. For this purpose, the diluted periplasmic extract was applied on a CM5 chip coated with human Gal10-His. As a positive control, a 20 nM injection of the purified g7B07 clone in the human Fab backbone was included at the beginning and end of the run.
The binding capacity of the Fab periplasmic extract was analyzed by SPR technology using a Biacore 3000. Briefly, diluted periplasmic extracts were injected on CM5 chip coated with 2500 RU of Gal10-His. The amplitude of the binding (Rmax), the dissociation (off-rate) of each clone, as well as the off-rate fold change compared to the controls (g7B07 and g7B07_N53A) are indicated. Clones g20H09 and g23H09 had similar or better off rate compared to the control g7B07 (Table 10). The randomized part of the CDR2 sequence is underlined (Table 10).

human Gal10-His [2] = target: T1, human Gal10-His; experiment: SPR Biacore 3000, hFab on captured human Gal10-His; column head prints (M), the text gives nM
Description: (§1) The binding properties of the selected clones to human and cynomolgus Gal10 was analyzed via a capture method established on a Biacore 3000 instrument.
(§2) For this purpose, two approaches were used. In the first, two concentrations of the selected clones were applied on cynomolgus (WGS isoform) Gal10-His capture on a CM5 chip coated with a monoclonal anti-His antibody. The second approach involved a serial dilution that was applied on human or cynomolgus (WGS isoform) Gal10-His in the same set-up.

[3] = target: T2, cynomolgus Gal10-His (WGS isoform) (cynomolgus); experiment: SPR Biacore 3000, hFab on cynomolgus Gal10-His (WGS) captured by anti-His CM5
T2 construct: also called cynomolgus antigen
Description: as §1, §2

human Gal10-His [4] = target: T1, human Gal10-His; experiment: SPR Biacore 3000, purified hFab on captured Gal10-His
Description: (§3) The binding properties of the selected Fab clones to human Gal10 were analyzed via a capture method established on a Biacore 3000 instrument. Two concentrations of the selected Fab clones were tested on human Gal10-His immobilized on a CM5 chip coated with a monoclonal anti-His. As controls, the clone g7B07 and g7B07_N53A were injected at the beginning and the end of the run. Briefly, a CM5 chip was coated with a monoclonal anti-His antibody (4000 RU), then a fixed concentration of the human Gal10-His (25 μg/mL) was captured on the anti-His chip before receiving two concentrations of the clones in the human Fab backbone.

human Gal10-His [5] = target: T1, human Gal10-His; experiment: SPR slope against calibrators on captured Gal10-His; T0 sample
Description: (§4) The binding properties of the seven selected clones following two weeks of temperature stress was analysed using an optimized capture method on a Biacore 3000 instrument. The binding properties of the stressed samples were determined, compared to the calibration point, and expressed as a percentage of Relative Activity (% RA).
(§5) Briefly, a capture method was set-up on a Biacore 3000 instrument. For this purpose, a CM5 chip was coated with a monoclonal anti-His antibody (4000 RU), then a fixed concentration of the human Gal10-His (25 μg/mL) was captured on the anti-His chip before receiving duplicate injections of the calibrators, QC samples and temperature stressed samples of each clone. The slope of each injected sample was then calculated using the BIA evaluation software. Concentrations of the QC samples and temperature stressed samples were back-calculated by interpolating the obtained slopes of these samples to the calibrator curve. Obtained values were within +/−20% of the nominal concentration of the tested samples and are expressed as average relative accuracy (avg % RA) (Table 13).

human Gal10-His [6] = target: T1, human Gal10-His; experiment: competition ELISA on coated Gal10-His; hFab 20 ug/mL, competitor g7B07-hFab-Biot, streptavidin-HRP
Description: An epitope binning analysis of the humanized Fab clones was carried out in comparison with the humanized Fab of g7B07.
For this experiment, a sub-optimal concentration of the biotinylated clone g7B07-humanized Fab was added to the Gal10 coated plate and pre-incubated with the selected clones. The percentage competition with g7B07 was then determined (Table 17). Motavizumab (Mota) in a human Fab backbone was used as a negative control (0% competition). Clone g7B07 was used as the positive control for competition and was therefore set as the 100% competition value. The anti-human specific clone 1D11 (binding to Tyrosine 69 residue) was included in the tested panel as a negative control for competition with 7B07 for Gal10 binding because it was known that clone 1D11 binds to the opposite side of Gal10 (including Tyrosine 69).

[7] = target: T2, cynomolgus Gal10-His (WGS isoform); experiment: SPR Biacore 3000, hFab on captured cynomolgus Gal10-His (WGS); column head prints (M), the text gives nM
Description: as §1, §2

human Gal10-His [8] = target: T1, human Gal10-His; experiment: SPR Biacore 3000, purified hFab (2 conc.) on Gal10-His captured by anti-His CM5
Description: as §3

human Gal10-His [9] = target: T1, human Gal10-His; experiment: SPR Biacore 3000, hFab on human Gal10-His captured by anti-His CM5
Description: as §1, §2

human Gal10-His [10] = target: T1, human Gal10-His; experiment: SPR slope against calibrators on captured Gal10-His; sample 2 weeks at 37 C
Description: as §4, §5

Row | Binder | Fold off-rate compared to g7B07 (human Gal10-His [1]) | koff (human Gal10-His [1]) | other results
1 | g20B05 (Fab, periplasmic extract) (Fab, V domains shown, X3 library; VH assembled by inference) VH: EVQLLESGGGLVQPGGSLRLSCAASGFTFRSYDMSWVRQAPGKGLEWVSAIKPVGITYYADSVKGRFTISRDNSKNTLYLQMNSLRAEDTAVYYCATTHGIGTLGFGSWGQGTLVTVSS VL: SYELTQPLSVSVALGQTARITCDGNNIGSKSAQWYQQKPGQAPVLVIYADEYRPEGIPERFSGSNSGNTATLTISRAQAGDEADYYCQVWDGSAAVFGGGTQLTVL | 3.3 fold | 0.023 s⁻¹ | 
2 | g20F04 (Fab, periplasmic extract) (Fab, V domains shown, X3 library) VH: EVQLLESGGGLVQPGGSLRLSCAASGFTFRSYDMSWVRQAPGKGLEWVSAIKHQVITYYADSVKGRFTISRDNSKNTLYLQMNSLRAEDTAVYYCATTHGIGTLGFGSWGQGTLVTVSS VL: SYELTQPLSVSVALGQTARITCDGNNIGSKSAQWYQQKPGQAPVLVIYADEYRPEGIPERFSGSNSGNTATLTISRAQAGDEADYYCQVWDGSAAVFGGGTQLTVL | 2.3 fold | 0.016 s⁻¹ | 
3 | g22C03 (Fab, periplasmic extract) (Fab, V domains shown, X5 library; VH assembled by inference) VH: EVQLLESGGGLVQPGGSLRLSCAASGFTFRSYDMSWVRQAPGKGLEWVSAIKLGTFTYYADSVKGRFTISRDNSKNTLYLQMNSLRAEDTAVYYCATTHGIGTLGFGSWGQGTLVTVSS VL: SYELTQPLSVSVALGQTARITCDGNNIGSKSAQWYQQKPGQAPVLVIYADEYRPEGIPERFSGSNSGNTATLTISRAQAGDEADYYCQVWDGSAAVFGGGTQLTVL | 2.9 fold | 0.02 s⁻¹ | 
4 | g23E05 (Fab, periplasmic extract) (Fab, V domains shown, X6 library; VH assembled by inference) VH: EVQLLESGGGLVQPGGSLRLSCAASGFTFRSYDMSWVRQAPGKGLEWVSAIRTFEHHTYYADSVKGRFTISRDNSKNTLYLQMNSLRAEDTAVYYCATTHGIGTLGFGSWGQGTLVTVSS VL: SYELTQPLSVSVALGQTARITCDGNNIGSKSAQWYQQKPGQAPVLVIYADEYRPEGIPERFSGSNSGNTATLTISRAQAGDEADYYCQVWDGSAAVFGGGTQLTVL | 1.8 fold | 0.013 s⁻¹ | 
5 | g23G11 (Fab, periplasmic extract) (Fab, V domains shown, X6 library; VH assembled by inference) VH: EVQLLESGGGLVQPGGSLRLSCAASGFTFRSYDMSWVRQAPGKGLEWVSAIQKTIVPTYYADSVKGRFTISRDNSKNTLYLQMNSLRAEDTAVYYCATTHGIGTLGFGSWGQGTLVTVSS VL: SYELTQPLSVSVALGQTARITCDGNNIGSKSAQWYQQKPGQAPVLVIYADEYRPEGIPERFSGSNSGNTATLTISRAQAGDEADYYCQVWDGSAAVFGGGTQLTVL | 2.6 fold | 0.018 s⁻¹ | 
6 | g23H11 (Fab, periplasmic extract) (Fab, V domains shown, X6 library; VH assembled by inference) VH: EVQLLESGGGLVQPGGSLRLSCAASGFTFRSYDMSWVRQAPGKGLEWVSAISKMPHLTYYADSVKGRFTISRDNSKNTLYLQMNSLRAEDTAVYYCATTHGIGTLGFGSWGQGTLVTVSS VL: SYELTQPLSVSVALGQTARITCDGNNIGSKSAQWYQQKPGQAPVLVIYADEYRPEGIPERFSGSNSGNTATLTISRAQAGDEADYYCQVWDGSAAVFGGGTQLTVL | 3.6 fold | 0.025 s⁻¹ | 
7 | g24F02 (human Fab) (Fab, V domains shown, Human Fab backbone (human CH1, human lambda CL); also called germlined 24F02) VH: EVQLLESGGGLVQPGGSLRLSCAASGFTFSSYAMSWVRQAPGKGLEWVSAINNGGGSTSYADSVKGRFTISRDNSKNTLYLQMNSLRAEDTAVYYCAKGLRVGVLGFDYWGQGTLVTVSS VL: SYELTQPLSVSVALGQTARITCDGNNIGSKSAQWYQQKPGQAPVLVIYADEYRPEGIPERFSGSNSGNTATLTISRAQAGDEADYYCQVWDGSAAVFGGGTQLTVL |  |  | Kd (human Gal10-His [2]): 1.49 nM; Amplitude R0 [3]: 566 RU; koff [3]: 0.0078 s⁻¹; kon [3]: 1.4e+06 M⁻¹ s⁻¹; fold better affinity than g7B07 (human Gal10-His [4]): 4.7 fold; % Relative Activity (RA) on Biacore (human Gal10-His [5]): 101%; % Competition against g7B07-Biot (human Gal10-His [6]): 96.5%; Mean OD value (human Gal10-His [6]): 0.26 OD; Kd [7]: 5.4 nM; Kd (human Gal10-His [8]): 2 nM; kd-fold drop vs g7B07 (human Gal10-His [8]): 2.8 fold; koff (human Gal10-His [8]): 0.0016 s⁻¹; kon (human Gal10-His [8]): 830000 M⁻¹ s⁻¹; Amplitude R0 (human Gal10-His [9]): 644 RU; koff (human Gal10-His [9]): 0.0016 s⁻¹; kon (human Gal10-His [9]): 1.1e+06 M⁻¹ s⁻¹; % Relative Activity (RA) on Biacore (human Gal10-His [10]): 175%
8 | g21F11 (Fab, periplasmic extract) (Fab, V domains shown, X4 library; VH assembled by inference) VH: EVQLLESGGGLVQPGGSLRLSCAASGFTFRSYDMSWVRQAPGKGLEWVSAIHTPMTYYADSVKGRFTISRDNSKNTLYLQMNSLRAEDTAVYYCATTHGIGTLGFGSWGQGTLVTVSS VL: SYELTQPLSVSVALGQTARITCDGNNIGSKSAQWYQQKPGQAPVLVIYADEYRPEGIPERFSGSNSGNTATLTISRAQAGDEADYYCQVWDGSAAVFGGGTQLTVL | 5.1 fold | 0.035 s⁻¹ | 
9 | g21B01 (Fab, periplasmic extract) (Fab, V domains shown, X4 library; VH assembled by inference) VH: EVQLLESGGGLVQPGGSLRLSCAASGFTFRSYDMSWVRQAPGKGLEWVSAISGALTYYADSVKGRFTISRDNSKNTLYLQMNSLRAEDTAVYYCATTHGIGTLGFGSWGQGTLVTVSS VL: SYELTQPLSVSVALGQTARITCDGNNIGSKSAQWYQQKPGQAPVLVIYADEYRPEGIPERFSGSNSGNTATLTISRAQAGDEADYYCQVWDGSAAVFGGGTQLTVL | 3.8 fold | 0.026 s⁻¹ | 
10 | g21C06 (Fab, periplasmic extract) (Fab, V domains shown, X4 library; VH assembled by inference) VH: EVQLLESGGGLVQPGGSLRLSCAASGFTFRSYDMSWVRQAPGKGLEWVSAIKRPWTYYADSVKGRFTISRDNSKNTLYLQMNSLRAEDTAVYYCATTHGIGTLGFGSWGQGTLVTVSS VL: SYELTQPLSVSVALGQTARITCDGNNIGSKSAQWYQQKPGQAPVLVIYADEYRPEGIPERFSGSNSGNTATLTISRAQAGDEADYYCQVWDGSAAVFGGGTQLTVL | 5.2 fold | 0.036 s⁻¹ | 
